# Measured values reported in article PMC5714209 (Nucleic Acids Research, 2017).
# Target: the molecule itself
# Assay: SEC
protein,measurement,value
full-length APOBEC3B (enzyme) not shown,stoichiometry N,4
